Assay results taken from patent publication US20190218277A1 (Chugai, published 2019).
Residue numbers refer to the chain shown, from its start.

B1: DG_3CH989-SG182/3CL633-SK1 (antibody, V domains shown)
VH: QVQLVQSGAEVKKPGASVKVSCKASGYTFTSNYIHWVRQAPGQGLEWMGVINPRGGSRRSAQKFQGRVTMTRDTSTSTVYMELSSLRSEDTAVYYCARGGRALFYDSYTTPFDGGSWWFDPWGQGSLVTVSS
VL: DIQLTQSPSSLSASVGDRVTITCQASQDIRKYLNWYQQKPGKAPKLLIYDASNLKTGVPSRFSGSGSGTDFTLTISSLQPEDVATYYCQQFDDLPITFGQGTRLQIKR
B2: DG_3CH1046-SG182/3CL012-SK1 (antibody, V domains shown)
VH: B1 VH with N32Y, I34M
VL: B1 VL with I21F, L73F, D92E
B3: DG_3CH989-SG182/3CL-SK1 (antibody, V domains shown)
VH: B1 VH
VL: B1 VL with I21F, L73F
B4: DG_3CH1000-SG1095/3CL-SK1 (antibody, human IgG1, kappa, L234A L235A)
heavy: QVQLVQSGPDVEKPGASVKVSCKASGYTFTSYYMHWVRQAPGQGLEWMGVINPRGGSRRSAQKFQGRITMTRDTSTSTVYMELSSLRSEDTAVYYCARGGRALFYDSYTTPFDGGSWWFDPWGQGSLVTVSSASTKGPSVFPLAPSSKSTSGGTAALGCLVKDYFPEPVTVSWNSGALTSGVHTFPAVLQSSGLYSLSSVVTVPSSSLGTQTYICNVNHKPSNTKVDKRVEPKSCDKTHTCPPCPAPEAAGGPSVFLFPPKPKDTLMISRTPEVTCVVVDVSHEDPEVKFNWYVDGVEVHNAKTKPREEQYNSTYRVVSVLTVLHQDWLNGKEYKCKVSNAALPAPISKTISKAKGQPREPQVYTLPPSREEMTKNQVSLTCLVKGFYPSDIAVEWESNGQPENNYKTTPPVLDSDGSFFLYSKLTVDKSRWQQGNVFSCSVMHEALHNHYTQKSLSLSP
light: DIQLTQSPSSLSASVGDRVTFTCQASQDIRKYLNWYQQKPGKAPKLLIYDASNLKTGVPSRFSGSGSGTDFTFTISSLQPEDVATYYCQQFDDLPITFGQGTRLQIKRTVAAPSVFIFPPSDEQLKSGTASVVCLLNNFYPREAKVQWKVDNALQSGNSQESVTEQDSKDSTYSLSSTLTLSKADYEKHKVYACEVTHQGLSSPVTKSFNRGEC
B5: DG_3CH1047-SG182/3CL666-SK1 (antibody, V domains shown)
VH: B1 VH with A9P, E10D, K12E, N32Y, I34M, V68I, R101E
VL: B1 VL with D28E
B6: DG_3CH1046-SG182/3CL-SK1 (antibody, V domains shown)
VH: B1 VH with N32Y, I34M
VL: B1 VL with I21F, L73F
B7: DG_3CH1047-SG182/3CL633-SK1 (antibody, V domains shown)
VH: B1 VH with A9P, E10D, K12E, N32Y, I34M, V68I, R101E
VL: B1 VL
B8: DG_3CH992-SG182/3CL119-SK1 (antibody, V domains shown)
VH: B1 VH with N32Y
VL: B1 VL with I21F, D28E, L73F
B9: DG_3CH1000-SG182/3CL668-SK1 (antibody, V domains shown)
VH: B1 VH with A9P, E10D, K12E, N32Y, I34M, V68I
VL: B1 VL with D92E
B10: DG_3CH1000-SG1095/3CL119-SK1 (antibody)
heavy: B4 heavy
light: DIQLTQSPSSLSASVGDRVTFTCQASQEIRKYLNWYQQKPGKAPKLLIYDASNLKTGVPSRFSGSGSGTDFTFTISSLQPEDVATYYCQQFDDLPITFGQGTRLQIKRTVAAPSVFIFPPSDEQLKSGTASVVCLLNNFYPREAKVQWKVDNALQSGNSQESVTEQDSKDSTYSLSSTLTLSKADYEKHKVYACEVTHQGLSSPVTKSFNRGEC
B11: DG_3CH1047-SG1095/3CL012-SK1 (antibody, human IgG1, kappa, L234A L235A)
heavy: B4 heavy with R101E
light: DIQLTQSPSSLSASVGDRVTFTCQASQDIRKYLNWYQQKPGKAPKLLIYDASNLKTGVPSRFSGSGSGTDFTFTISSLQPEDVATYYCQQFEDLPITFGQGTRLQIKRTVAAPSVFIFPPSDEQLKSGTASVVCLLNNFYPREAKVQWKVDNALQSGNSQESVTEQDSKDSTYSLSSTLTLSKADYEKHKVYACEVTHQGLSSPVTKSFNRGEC
B12: DG_3CH1000-SG1095/3CL012-SK1 (antibody, human IgG1, kappa, L234A L235A)
heavy: B4 heavy
light: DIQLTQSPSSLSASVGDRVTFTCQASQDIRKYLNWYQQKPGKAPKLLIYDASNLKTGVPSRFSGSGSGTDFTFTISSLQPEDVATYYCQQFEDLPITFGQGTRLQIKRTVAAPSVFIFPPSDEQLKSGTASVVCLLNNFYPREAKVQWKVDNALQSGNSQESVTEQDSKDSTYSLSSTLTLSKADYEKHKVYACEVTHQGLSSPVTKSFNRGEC
B13: DG_3CH1046-SG182/3CL119-SK1 (antibody, V domains shown)
VH: B1 VH with N32Y, I34M
VL: B1 VL with I21F, D28E, L73F
B14: DG_3CH992-SG182/3CL-SK1 (antibody, V domains shown)
VH: B1 VH with N32Y
VL: B1 VL with I21F, L73F
B15: DG_3CH992-SG182/3CL666-SK1 (antibody, V domains shown)
VH: B1 VH with N32Y
VL: B1 VL with D28E
B16: DG_3CH1049-SG182/3CL012-SK1 (antibody, V domains shown)
VH: B1 VH with N32Y, I34M, R101E
VL: B1 VL with I21F, L73F, D92E
B17: DG_3CH1046-SG182/3CL633-SK1 (antibody, V domains shown)
VH: B1 VH with N32Y, I34M
VL: B1 VL
B18: DG_3CH992-SG182/3CL633-SK1 (antibody, V domains shown)
VH: B1 VH with N32Y
VL: B1 VL
B19: DG_3CH992-SG182/3CL012-SK1 (antibody, V domains shown)
VH: B1 VH with N32Y
VL: B1 VL with I21F, L73F, D92E
B20: DG_3CH1049-SG182/3CL119-SK1 (antibody, V domains shown)
VH: B1 VH with N32Y, I34M, R101E
VL: B1 VL with I21F, D28E, L73F
B21: DG_3CH989-SG182/3CL666-SK1 (antibody, V domains shown)
VH: B1 VH
VL: B1 VL with D28E
B22: DG_3CH1049-SG182/3CL-SK1 (antibody, V domains shown)
VH: B1 VH with N32Y, I34M, R101E
VL: B1 VL with I21F, L73F
B23: DG_3CH1000-SG182/3CL666-SK1 (antibody, V domains shown)
VH: B1 VH with A9P, E10D, K12E, N32Y, I34M, V68I
VL: B1 VL with D28E
B24: DG_3CH1000-SG182/3CL633-SK1 (antibody, V domains shown)
VH: B1 VH with A9P, E10D, K12E, N32Y, I34M, V68I
VL: B1 VL
B25: DG_3CH989-SG182/3CL668-SK1 (antibody, V domains shown)
VH: B1 VH
VL: B1 VL with D92E
B26: DG_3CH1047-SG1095/3CL119-SK1 (antibody)
heavy: B4 heavy with R101E
light: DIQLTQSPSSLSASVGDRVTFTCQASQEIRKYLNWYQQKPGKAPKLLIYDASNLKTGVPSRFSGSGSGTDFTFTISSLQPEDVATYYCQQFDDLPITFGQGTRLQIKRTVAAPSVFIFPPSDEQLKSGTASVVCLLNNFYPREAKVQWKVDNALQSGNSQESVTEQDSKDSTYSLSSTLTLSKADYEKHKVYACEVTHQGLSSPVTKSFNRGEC

Biological target: T1, Recombinant soluble E protein (0.8E-His) from DENV-1 (DENV-1, UniProt P27909 281-675)
T1 construct: also called DENV-1 E protein; DV1
Test: not given

Binder	Kd [pM]
B1	1540
B2	1920
B3	1840
B4	1800
B5	982
B6	1910
B7	956
B8	1870
B9	1680
B10	1920
B11	2210
B12	1830
B13	1530
B14	2020
B15	1390
B16	2260
B17	1640
B18	1270
B19	1720
B20	1720
B21	1500
B22	2140
B23	1660
B24	1770
B25	1500
B26	2230

Biological target: T2, Recombinant soluble E protein (0.8E-His) from DENV-4 (DENV-4, UniProt P09866 280-674)
T2 construct: also called DENV-4 E protein; DV4
Test: SPR, Biacore T200

Binder	binding result
B1	binds
B2	binds
B3	binds
B4	binds
B5	binds
B6	binds
B7	binds
B8	binds
B9	binds
B10	binds
B11	binds
B12	binds
B13	binds
B14	binds
B15	binds
B16	binds
B17	binds
B18	binds
B19	binds
B20	binds
B21	binds
B22	binds
B23	binds
B24	binds
B25	binds
B26	binds

Biological target: T3, Recombinant soluble E protein (0.8E-His) from DENV-2 (DENV-2, UniProt P14340 281-675)
T3 construct: also called DENV-2 E protein; DV2
Test: SPR, Biacore T200

Binder	binding result
B1	binds
B2	binds
B3	binds
B4	binds
B5	binds
B6	binds
B7	binds
B8	binds
B9	binds
B10	binds
B11	binds
B12	binds
B13	binds
B14	binds
B15	binds
B16	binds
B17	binds
B18	binds
B19	binds
B20	binds
B21	binds
B22	binds
B23	binds
B24	binds
B25	binds
B26	binds

Biological target: T4, Recombinant soluble E protein (0.8E-His) from DENV-3 (DENV-3, UniProt P27915 281-673)
T4 construct: also called DENV-3 E protein; DV3
Test: not given

Binder	Kd [pM]
B1	2.37
B2	0.145
B3	0.448
B4	16.8
B5	42
B6	0.213
B7	0.437
B8	0.515
B9	0.8
B10	0.0428
B11	3.17
B12	0.959
B13	2.73
B14	4.03
B15	0.802
B16	1.05
B17	0.201
B18	2.95
B19	1.07
B20	5.09
B21	1.96
B22	2.39
B23	2.5
B24	4.25
B25	3.03
B26	3.79
